In the assay the target is extracellular region of human V158 FcγRIIIa fused with glutathione S-Transferase (GST) (human) (UniProt P08637). Description: AlphaScreen competition. (Alpha assays give light when donor and acceptor beads are brought close together.)
Chain of extracellular region of human V158 FcγRIIIa fused with glutathione S-Transferase (GST) (human) (P08637 17-208 F176V): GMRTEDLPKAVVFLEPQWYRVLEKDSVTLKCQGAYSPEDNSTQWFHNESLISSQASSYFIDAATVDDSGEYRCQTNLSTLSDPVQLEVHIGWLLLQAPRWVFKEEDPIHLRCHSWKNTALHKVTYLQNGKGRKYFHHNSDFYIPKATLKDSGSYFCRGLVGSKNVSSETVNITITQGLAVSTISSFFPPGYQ

For T299A alemtuzumab (antibody), the FcγRIIIa Fold stood at 0.03 fold vs WT.

Substance “F241E/F243Y/V262T/V264R alemtuzumab (antibody)” yielded a FcγRIIIa Fold of 0.05 fold vs WT.

The substance L234I/L235D trastuzumab (antibody) came in with a FcγRIIIa Fold of 0.07 fold vs WT.

With “F241R/F243Q/V262T/V264R alemtuzumab (antibody)”, the FcγRIIIa Fold turned out to be 0.02 fold vs WT.

In turn, A327L alemtuzumab (antibody) came in with a FcγRIIIa Fold of 0.05 fold vs WT.

“Y296N/N297D/I332E alemtuzumab (antibody)” gave a FcγRIIIa Fold of 0.04 fold vs WT.

S267Q/A327S alemtuzumab (antibody) came in with a FcγRIIIa Fold of 0.03 fold vs WT.

Consider “S239D/D265H/N297D/I332E alemtuzumab (antibody)”, for which the FcγRIIIa Fold amounted to 0.04 fold vs WT.

“S239D/D265V/N297D/I332E alemtuzumab (antibody)” had a FcγRIIIa Fold of 0.03 fold vs WT.

As for F241L/V262I alemtuzumab (antibody), the FcγRIIIa Fold came out at 0.06 fold vs WT.

For S239E/D265Q alemtuzumab (antibody), the FcγRIIIa Fold worked out at 0.05 fold vs WT.

“F241E/F243R/V262E/V264R alemtuzumab (antibody)”: the FcγRIIIa Fold is 0.05 fold vs WT.

Substance F241W/F243W alemtuzumab (antibody) gave a FcγRIIIa Fold of 0.07 fold vs WT.

As for “S239E/N297D/I332E alemtuzumab (antibody)”, the FcγRIIIa Fold is 0.06 fold vs WT.

In turn, “F241E/F243Q/V262T/V264E alemtuzumab (antibody)” yielded a FcγRIIIa Fold of 0.07 fold vs WT.

For the substance “V264E/N297D/I332E alemtuzumab (antibody)”, the FcγRIIIa Fold is 0.05 fold vs WT.

The record behind these values is patent US20070224189A1.
